Laboratory results: article PMC5443838, “Peripherin-2 and Rom-1 have opposing effects on rod outer segment targeting of retinitis pigmentosa-linked peripherin-2 mutants” (Scientific Reports, 2017)
Positions count from the first letter of the chain named. Numbers in names are those of the source. Where “and” joins values, the source holds several entries; their conditions need not be identical. Equal entries are not always repeated.

B1: citrine- or cerulean-tagged per^WT (FRET construct, HEK293T) (natural protein, human, UniProt P23942 1-346, looked up)
chain: MALLKVKFDQKKRVKLAQGLWLMNWFSVLAGIIIFSLGLFLKIELRKRSDVMNNSESHFVPNSLIGMGVLSCVFNSLAGKICYDALDPAKYARWKPWLKPYLAICVLFNIILFLVALCCFLLRGSLENTLGQGLKNGMKYYRDTDTPGRCFMKKTIDMLQIEFKCCGNNGFRDWFEIQWISNRYLDFSSKEVKDRIKSNVDGRYLVDGVPFSCCNPSSPRPCIQYQITNNSAHYSYDHQTEELNLWVRGCRAALLSYYSSLMNSMGVVTLLIWLFEVTITIGLRYLQTSLDGVSNPEESESESQGWLLERSVPETWKAFLESVKKLGKGNQVEAEGADAGQAPEAG
notes: peripherin-2 (PRPH2), human, wild type; in the 'per^WT only' FRET pair the two copies differ in the fluorophore; also called per^WT only; source: HEK293T, transiently co-transfected, in living cells
B2: C-terminally myc- or flag-tagged per^WT (SDGC construct) (natural protein, human, UniProt P23942 1-346, looked up)
chain: B1 chain
notes: peripherin-2 (PRPH2), human, wild type; also called per^WT only; source: HEK293T, transiently transfected, in lysate (0.5% Triton X-100)
B3: citrine- or cerulean-tagged per^C214S (FRET construct, HEK293T) (natural protein, human, UniProt P23942 1-346, looked up)
chain: B1 chain with C214S
notes: peripherin-2 (PRPH2), human, adRP-linked mutant C214S; in the 'per^C214S only' FRET pair the two copies differ in the fluorophore; also called per^C214S only; per^MT; source: HEK293T, transiently co-transfected, in living cells
B4: C-terminally myc- or flag-tagged per^C214S (SDGC construct) (natural protein, human, UniProt P23942 1-346, looked up)
chain: B1 chain with C214S
notes: peripherin-2 (PRPH2), human, adRP-linked mutant C214S; also called per^C214S only; per^MT; source: HEK293T, transiently transfected, in lysate (0.5% Triton X-100)
B5: citrine- or cerulean-tagged per^P210L (FRET construct, HEK293T) (natural protein, human, UniProt P23942 1-346, looked up)
chain: B1 chain with P210L
notes: peripherin-2 (PRPH2), human, adRP-linked mutant P210L; in the 'per^P210L only' FRET pair the two copies differ in the fluorophore; also called per^P210L only; per^MT; source: HEK293T, transiently co-transfected, in living cells

Legend:
[1] = molecular target: T1, citrine- or cerulean-tagged Rom-1 (FRET construct, HEK293T) (human, UniProt Q03395 1-351); assay: FRET or BRET; 3 cube FRET in living co-transfected HEK293T cells; FRET imaging solution (140 mM NaCl, 5 mM KCl, 2 mM CaCl2, 1 mM MgCl2, 10 mM glucose, 10 mM HEPES, pH 7.4), RT; EAmax from the binding curve of apparent FRET efficiency against the cerulean/citrine molar ratio; conditions: partners not purified
T1 construct: Rom-1, homolog of peripherin-2; 'the single human peripherin-2 and Rom-1 transgenes'; source: HEK293T, transiently co-transfected, in living cells

[2] = molecular target: the molecule itself; assay: as above
[3] = molecular target: the molecule itself; assay: sucrose density gradient centrifugation; lysate of transfected HEK293T cells (0.5% Triton X-100, 150 mM NaCl, 2 mM CaCl2) on a 5-20% sucrose gradient with 0.1% Triton X-100 and 10 mM N-ethylmaleimide, 46,700 rpm, 2 h, 4 °C; 11 fractions immunoblotted with myc- or flag-specific antibodies under non-reducing conditions; DNA standards for size
[4] = molecular target: B1; assay: FRET or BRET; 3 cube FRET in living co-transfected HEK293T cells; FRET imaging solution (140 mM NaCl, 5 mM KCl, 2 mM CaCl2, 1 mM MgCl2, 10 mM glucose, 10 mM HEPES, pH 7.4), RT; EAmax from the binding curve of apparent FRET efficiency against the cerulean/citrine molar ratio; conditions: partners not purified

T1 sequence (Q03395 whole entry): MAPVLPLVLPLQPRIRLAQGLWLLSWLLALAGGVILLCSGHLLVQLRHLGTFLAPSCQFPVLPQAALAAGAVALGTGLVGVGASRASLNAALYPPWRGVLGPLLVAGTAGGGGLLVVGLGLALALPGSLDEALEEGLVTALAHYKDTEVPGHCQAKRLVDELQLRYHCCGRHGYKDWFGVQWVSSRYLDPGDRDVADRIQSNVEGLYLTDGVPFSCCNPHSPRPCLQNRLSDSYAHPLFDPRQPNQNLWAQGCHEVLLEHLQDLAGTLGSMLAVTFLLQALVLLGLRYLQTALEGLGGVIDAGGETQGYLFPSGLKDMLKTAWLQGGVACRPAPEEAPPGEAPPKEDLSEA

Row | EAmax (maximal FRET efficiency) [1] [%] | EAmax (maximal FRET efficiency) [4] [%] | Binder | EAmax (maximal FRET efficiency) [2] [%] | stoichiometry N [3]
1 | 15.6 | – | B1 | 34.2 | –
2 | – | – | B2 | – | 4 and 8
3 | 6.32 | 8.58 | B3 | 26.5 | –
4 | – | – | B4 | – | 2
5 | 6.58 | 9.44 | B5 | 30.7 | –
